From the supplement of paper PMC9112550, “Optimization of the antimicrobial peptide Bac7 by deep mutational scanning” (BMC Biology, 2022)

System: Escherichia coli TOP10
Assay: shrunken log2 fold change of peptide-encoding DNA abundance (4.5 h post-induction vs induction); higher = less antimicrobial activity (less host growth inhibition)
Conditions: time post-induction: 4.5 h; library: site-saturation at positions 5, 18, 19, 20
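Note: peptides expressed intracellularly from a pBAD plasmid library in pooled LB shake-flask culture, induced with 0.3% L-arabinose, DNA abundance read by NGS, three biological replicates, DESeq2 with apeglm shrinkage.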

RRIRYRPPRLPRPRPRPANFPRP
shrunken log2 fold change: 0.0515

RRIRYRPPRLPRPRPRPAPDPRP
shrunken log2 fold change: 0.307

RRIRYRPPRLPRPRPRPAPEPRP
shrunken log2 fold change: 0.134

RRIRYRPPRLPRPRPRPAPKPRP
shrunken log2 fold change: 0.207

RRIRYRPPRLPRPRPRPAPVPRP
shrunken log2 fold change: 0.125

RRIRYRPPRLPRPRPRPAVHPRP
shrunken log2 fold change: -0.0328

RRIRYRPPRLPRPRPRPAVKPRP
shrunken log2 fold change: -0.0154

RRIRYRPPRLPRPRPRPAVVPRP
shrunken log2 fold change: -0.149

RRIRYRPPRLPRPRPRPAWYPRP
shrunken log2 fold change: -0.687

RRIRYRPPRLPRPRPRPAYKPRP
shrunken log2 fold change: -0.14

RRIRYRPPRLPRPRPRPCALPRP
shrunken log2 fold change: -0.671

RRIRYRPPRLPRPRPRPCFRPRP
shrunken log2 fold change: -0.266

RRIRYRPPRLPRPRPRPCGCPRP
shrunken log2 fold change: -0.0582

RRIRYRPPRLPRPRPRPCGYPRP
shrunken log2 fold change: -0.467

RRIRYRPPRLPRPRPRPCHFPRP
shrunken log2 fold change: -0.0527

RRIRYRPPRLPRPRPRPCKKPRP
shrunken log2 fold change: -0.0222

RRIRYRPPRLPRPRPRPCKRPRP
shrunken log2 fold change: -0.0961

RRIRYRPPRLPRPRPRPCLCPRP
shrunken log2 fold change: -0.453

RRIRYRPPRLPRPRPRPCLDPRP
shrunken log2 fold change: -0.125

RRIRYRPPRLPRPRPRPCLTPRP
shrunken log2 fold change: -0.125

RRIRYRPPRLPRPRPRPCLYPRP
shrunken log2 fold change: -0.783

RRIRYRPPRLPRPRPRPCMPPRP
shrunken log2 fold change: -0.123

RRIRYRPPRLPRPRPRPCMWPRP
shrunken log2 fold change: 0.0465

RRIRYRPPRLPRPRPRPCNRPRP
shrunken log2 fold change: -0.182

RRIRYRPPRLPRPRPRPCPYPRP
shrunken log2 fold change: -0.0107

RRIRYRPPRLPRPRPRPCRGPRP
shrunken log2 fold change: -0.157

RRIRYRPPRLPRPRPRPCRPPRP
shrunken log2 fold change: -0.0124

RRIRYRPPRLPRPRPRPCRWPRP
shrunken log2 fold change: -0.267

RRIRYRPPRLPRPRPRPCSEPRP
shrunken log2 fold change: -0.067

RRIRYRPPRLPRPRPRPCSYPRP
shrunken log2 fold change: -0.0018

RRIRYRPPRLPRPRPRPCYYPRP
shrunken log2 fold change: -1.03

RRIRYRPPRLPRPRPRPDAQPRP
shrunken log2 fold change: -0.0145

RRIRYRPPRLPRPRPRPDCEPRP
shrunken log2 fold change: 0.0295

RRIRYRPPRLPRPRPRPDDNPRP
shrunken log2 fold change: 0.0238

RRIRYRPPRLPRPRPRPDDSPRP
shrunken log2 fold change: 0.00262

RRIRYRPPRLPRPRPRPDFRPRP
shrunken log2 fold change: 0.129

RRIRYRPPRLPRPRPRPDFWPRP
shrunken log2 fold change: 0.125

RRIRYRPPRLPRPRPRPDGMPRP
shrunken log2 fold change: 0.0112

RRIRYRPPRLPRPRPRPDGWPRP
shrunken log2 fold change: 0.212

RRIRYRPPRLPRPRPRPDKKPRP
shrunken log2 fold change: -0.0333

RRIRYRPPRLPRPRPRPDKYPRP
shrunken log2 fold change: 0.0363

RRIRYRPPRLPRPRPRPDLMPRP
shrunken log2 fold change: -0.107

RRIRYRPPRLPRPRPRPDMMPRP
shrunken log2 fold change: -0.417

RRIRYRPPRLPRPRPRPDNTPRP
shrunken log2 fold change: -0.325

RRIRYRPPRLPRPRPRPDQPPRP
shrunken log2 fold change: 0.0375

RRIRYRPPRLPRPRPRPDRDPRP
shrunken log2 fold change: -0.109

RRIRYRPPRLPRPRPRPDSAPRP
shrunken log2 fold change: -0.378

RRIRYRPPRLPRPRPRPDSYPRP
shrunken log2 fold change: -0.0836

RRIRYRPPRLPRPRPRPDTCPRP
shrunken log2 fold change: -0.233

RRIRYRPPRLPRPRPRPDYFPRP
shrunken log2 fold change: -0.22

RRIRYRPPRLPRPRPRPEDCPRP
shrunken log2 fold change: -0.029

RRIRYRPPRLPRPRPRPEDPPRP
shrunken log2 fold change: -0.0591

RRIRYRPPRLPRPRPRPEDRPRP
shrunken log2 fold change: 0.119

RRIRYRPPRLPRPRPRPEFIPRP
shrunken log2 fold change: -0.628

RRIRYRPPRLPRPRPRPEFPPRP
shrunken log2 fold change: 0.011

RRIRYRPPRLPRPRPRPEFVPRP
shrunken log2 fold change: -0.327

RRIRYRPPRLPRPRPRPEGEPRP
shrunken log2 fold change: 0.199

RRIRYRPPRLPRPRPRPEHHPRP
shrunken log2 fold change: -0.646

RRIRYRPPRLPRPRPRPEHYPRP
shrunken log2 fold change: -0.126

RRIRYRPPRLPRPRPRPEIFPRP
shrunken log2 fold change: -0.159

RRIRYRPPRLPRPRPRPEIPPRP
shrunken log2 fold change: 0.0336

RRIRYRPPRLPRPRPRPELKPRP
shrunken log2 fold change: -0.162

RRIRYRPPRLPRPRPRPELNPRP
shrunken log2 fold change: -0.395

RRIRYRPPRLPRPRPRPEPHPRP
shrunken log2 fold change: -0.0423

RRIRYRPPRLPRPRPRPEQNPRP
shrunken log2 fold change: 0.00317

RRIRYRPPRLPRPRPRPERNPRP
shrunken log2 fold change: 0.00677

RRIRYRPPRLPRPRPRPERVPRP
shrunken log2 fold change: -0.0107

RRIRYRPPRLPRPRPRPESKPRP
shrunken log2 fold change: -0.859

RRIRYRPPRLPRPRPRPETDPRP
shrunken log2 fold change: -0.021

RRIRYRPPRLPRPRPRPETWPRP
shrunken log2 fold change: 0.093

RRIRYRPPRLPRPRPRPETYPRP
shrunken log2 fold change: -0.372

RRIRYRPPRLPRPRPRPEVHPRP
shrunken log2 fold change: -0.187

RRIRYRPPRLPRPRPRPEWLPRP
shrunken log2 fold change: 0.00963

RRIRYRPPRLPRPRPRPEYNPRP
shrunken log2 fold change: -0.15

RRIRYRPPRLPRPRPRPEYPPRP
shrunken log2 fold change: -0.01

RRIRYRPPRLPRPRPRPEYWPRP
shrunken log2 fold change: -0.692

RRIRYRPPRLPRPRPRPFCCPRP
shrunken log2 fold change: -0.509

RRIRYRPPRLPRPRPRPFCDPRP
shrunken log2 fold change: -0.208

RRIRYRPPRLPRPRPRPFCWPRP
shrunken log2 fold change: -0.212

RRIRYRPPRLPRPRPRPFDKPRP
shrunken log2 fold change: -0.0924

RRIRYRPPRLPRPRPRPFGKPRP
shrunken log2 fold change: -0.0625

RRIRYRPPRLPRPRPRPFHYPRP
shrunken log2 fold change: -0.21

RRIRYRPPRLPRPRPRPFICPRP
shrunken log2 fold change: -0.579

RRIRYRPPRLPRPRPRPFKEPRP
shrunken log2 fold change: -0.146

RRIRYRPPRLPRPRPRPFKMPRP
shrunken log2 fold change: -0.673

RRIRYRPPRLPRPRPRPFKTPRP
shrunken log2 fold change: -0.398

RRIRYRPPRLPRPRPRPFLMPRP
shrunken log2 fold change: -0.922

RRIRYRPPRLPRPRPRPFLRPRP
shrunken log2 fold change: -0.308

RRIRYRPPRLPRPRPRPFPIPRP
shrunken log2 fold change: -0.705

RRIRYRPPRLPRPRPRPFPMPRP
shrunken log2 fold change: -0.834

RRIRYRPPRLPRPRPRPFSYPRP
shrunken log2 fold change: -0.145

RRIRYRPPRLPRPRPRPFVAPRP
shrunken log2 fold change: -0.696

RRIRYRPPRLPRPRPRPFWVPRP
shrunken log2 fold change: -0.0684

RRIRYRPPRLPRPRPRPFYEPRP
shrunken log2 fold change: -1.2

RRIRYRPPRLPRPRPRPFYKPRP
shrunken log2 fold change: -0.00388

RRIRYRPPRLPRPRPRPFYNPRP
shrunken log2 fold change: -1.15

RRIRYRPPRLPRPRPRPFYTPRP
shrunken log2 fold change: -1.19

RRIRYRPPRLPRPRPRPGAAPRP
shrunken log2 fold change: 0.176

RRIRYRPPRLPRPRPRPGAPPRP
shrunken log2 fold change: 0.312

RRIRYRPPRLPRPRPRPGCFPRP
shrunken log2 fold change: -0.349

RRIRYRPPRLPRPRPRPGCKPRP
shrunken log2 fold change: -0.0843

RRIRYRPPRLPRPRPRPGCPPRP
shrunken log2 fold change: -0.085

RRIRYRPPRLPRPRPRPGCSPRP
shrunken log2 fold change: -0.214

RRIRYRPPRLPRPRPRPGDKPRP
shrunken log2 fold change: -0.288

RRIRYRPPRLPRPRPRPGEVPRP
shrunken log2 fold change: -0.0129

RRIRYRPPRLPRPRPRPGFEPRP
shrunken log2 fold change: -0.127

RRIRYRPPRLPRPRPRPGGCPRP
shrunken log2 fold change: 0.0169

RRIRYRPPRLPRPRPRPGHAPRP
shrunken log2 fold change: 3.02

RRIRYRPPRLPRPRPRPGHTPRP
shrunken log2 fold change: -0.626

RRIRYRPPRLPRPRPRPGKGPRP
shrunken log2 fold change: -0.0232

RRIRYRPPRLPRPRPRPGKPPRP
shrunken log2 fold change: -0.0225

RRIRYRPPRLPRPRPRPGLAPRP
shrunken log2 fold change: 0.323

RRIRYRPPRLPRPRPRPGLKPRP
shrunken log2 fold change: -0.0239

RRIRYRPPRLPRPRPRPGLLPRP
shrunken log2 fold change: 0.0178

RRIRYRPPRLPRPRPRPGLWPRP
shrunken log2 fold change: 0.032

RRIRYRPPRLPRPRPRPGNGPRP
shrunken log2 fold change: -0.234

RRIRYRPPRLPRPRPRPGNKPRP
shrunken log2 fold change: -0.292

RRIRYRPPRLPRPRPRPGNYPRP
shrunken log2 fold change: -0.0361

RRIRYRPPRLPRPRPRPGPRPRP
shrunken log2 fold change: 0.744

RRIRYRPPRLPRPRPRPGPSPRP
shrunken log2 fold change: -0.125

RRIRYRPPRLPRPRPRPGRWPRP
shrunken log2 fold change: 0.475

RRIRYRPPRLPRPRPRPGTPPRP
shrunken log2 fold change: 1.16

RRIRYRPPRLPRPRPRPGTRPRP
shrunken log2 fold change: -0.393

RRIRYRPPRLPRPRPRPGVVPRP
shrunken log2 fold change: -0.354

RRIRYRPPRLPRPRPRPGYNPRP
shrunken log2 fold change: -0.0489

RRIRYRPPRLPRPRPRPGYPPRP
shrunken log2 fold change: -0.299

RRIRYRPPRLPRPRPRPGYYPRP
shrunken log2 fold change: -0.545

RRIRYRPPRLPRPRPRPHCWPRP
shrunken log2 fold change: -0.702

RRIRYRPPRLPRPRPRPHDHPRP
shrunken log2 fold change: 1.33

RRIRYRPPRLPRPRPRPHFGPRP
shrunken log2 fold change: 0.0439

RRIRYRPPRLPRPRPRPHFHPRP
shrunken log2 fold change: -0.489

RRIRYRPPRLPRPRPRPHFQPRP
shrunken log2 fold change: -0.399

RRIRYRPPRLPRPRPRPHHMPRP
shrunken log2 fold change: -0.311

RRIRYRPPRLPRPRPRPHHTPRP
shrunken log2 fold change: -0.418

RRIRYRPPRLPRPRPRPHLVPRP
shrunken log2 fold change: -0.0159

RRIRYRPPRLPRPRPRPHMIPRP
shrunken log2 fold change: -0.734

RRIRYRPPRLPRPRPRPHNFPRP
shrunken log2 fold change: -0.118

RRIRYRPPRLPRPRPRPHQMPRP
shrunken log2 fold change: -0.0207

RRIRYRPPRLPRPRPRPHRVPRP
shrunken log2 fold change: -0.248

RRIRYRPPRLPRPRPRPHWHPRP
shrunken log2 fold change: -0.912

RRIRYRPPRLPRPRPRPHWNPRP
shrunken log2 fold change: -0.799

RRIRYRPPRLPRPRPRPHWPPRP
shrunken log2 fold change: -0.322

RRIRYRPPRLPRPRPRPHYFPRP
shrunken log2 fold change: -0.833

RRIRYRPPRLPRPRPRPHYPPRP
shrunken log2 fold change: -1.84

RRIRYRPPRLPRPRPRPHYYPRP
shrunken log2 fold change: 0.0204

RRIRYRPPRLPRPRPRPICLPRP
shrunken log2 fold change: -0.219

RRIRYRPPRLPRPRPRPIERPRP
shrunken log2 fold change: 0.0253

RRIRYRPPRLPRPRPRPIEVPRP
shrunken log2 fold change: -0.217

RRIRYRPPRLPRPRPRPIFMPRP
shrunken log2 fold change: -0.269

RRIRYRPPRLPRPRPRPIFPPRP
shrunken log2 fold change: -0.23
